Assay results from publication PMC9870165.

How the values were obtained:
[1] = molecular target: ZIKV E protein on wild-type Zika virus H/PF/2013 in culture supernatant (Zika virus (strain H/PF/2013)); experiment: ELISA; ZIKV capture ELISA: virus in culture supernatant captured by plate-bound mAb 4G2; serially diluted Fabs added 1 h at 37°C; anti-human Fab alkaline phosphatase; EC50 from titration
[2] = molecular target: recombinant ZIKV E protein (ectodomain of Zika virus envelope glycoprotein E) (Zika virus); experiment: crystal structure; recombinant ZIKV E and G9E Fab mixed 1:1.2 at room temperature for 30 min, complex purified on Superdex 200-increase; crystals in 100 mM HEPES pH 7.5, 10% (w/v) PEG 8000; 3.4 Å

“G9E-S1/2 Fab (paratope mutant D53A, D54A, D57S, Q58A, K76S)” was tested, and the fold weaker binding than G9E-S2 [1] was 30 fold.

With “G9E-S2 Fab (paratope mutant D57S, Q58A, K76S)” the fold reduction in binding compared to WT G9E [1] was 10 fold.

In the case of “recombinant ZIKV E protein (ectodomain of Zika virus envelope glycoprotein E) (domain or fragment)”, the stoichiometry N [2] is reported as 2.
